{
  "source": "paper PMC7367873",
  "about": "“Dissecting the sequence determinants for dephosphorylation by the catalytic subunits of phosphatases PP1 and PP2A” (Nature Communications, 2020)",
  "molecules": {"B1": {"name": "HNRNPUL1 (protein, UniProt Q9BUJ2 1-856, looked up)", "Heterogeneous nuclear …": "MDVRRLKVNELREELQRRGLDTRGLKAELAERLQAALEAEEPDDERELDADDEPGRPGHINEEVETEGGSELEGTAQPPPPGLQPHAEPGGYSGPDGHYAMDNITRQNQFYDTQVIKQENESGYERRPLEMEQQQAYRPEMKTEMKQGAPTSFLPPEASQLKPDRQQFQSRKRPYEENRGRGYFEHREDRRGRSPQPPAEEDEDDFDDTLVAIDTYNCDLHFKVARDRSSGYPLTIEGFAYLWSGARASYGVRRGRVCFEMKINEEISVKHLPSTEPDPHVVRIGWSLDSCSTQLGEEPFSYGYGGTGKKSTNSRFENYGDKFAENDVIGCFADFECGNDVELSFTKNGKWMGIAFRIQKEALGGQALYPHVLVKNCAVEFNFGQRAEPYCSVLPGFTFIQHLPLSERIRGTVGPKSKAECEILMMVGLPAAGKTTWAIKHAASNPSKKYNILGTNAIMDKMRVMGLRRQRNYAGRWDVLIQQATQCLNRLIQIAARKKRNYILDQTNVYGSAQRRKMRPFEGFQRKAIVICPTDEDLKDRTIKRTDEEGKDVPDHAVLEMKANFTLPDVGDFLDEVLFIELQREEADKLVRQYNEEGRKAGPPPEKRFDNRGGGGFRGRGGGGGFQRYENRGPPGGNRGGFQNRGGGSGGGGNYRGGFNRSGGGGYSQNRWGNNNRDNNNSNNRGSYNRAPQQQPPPQQPPPPQPPPQQPPPPPSYSPARNPPGASTYNKNSNIPGSSANTSTPTVSSYSPPQPSYSQPPYNQGGYSQGYTAPPPPPPPPPAYNYGSYGGYNPAPYTPPPPPTAQTYPQPSYNQYQQYAQQWNQYYQNQGQWPPYYGNYDYGSYSGNTQGGTSTQ"}, "B2": {"name": "OSBPL3 (protein, UniProt Q9H4L5 1-887, looked up)", "Oxysterol-binding …": "MMSDEKNLGVSQKLVSPSRSTSSCSSKQGSRQDSWEVVEGLRGEMNYTQEPPVQKGFLLKKRKWPLKGWHKRFFYLDKGILKYAKSQTDIEREKLHGCIDVGLSVMSVKKSSKCIDLDTEEHIYHLKVKSEEVFDEWVSKLRHHRMYRQNEIAMFPHEVNHFFSGSTITDSSSGVFDSISSRKRSSISKQNLFQTGSNVSFSCGGETRVPLWLQSSEDMEKCSKDLAHCHAYLVEMSQLLQSMDVLHRTYSAPAINAIQGGSFESPKKEKRSHRRWRSRAIGKDAKGTLQVPKPFSGPVRLHSSNPNLSTLDFGEEKNYSDGSETSSEFSKMQEDLCHIAHKVYFTLRSAFNIMSAEREKLKQLMEQDASSSPSAQVIGLKNALSSALAQNTDLKERLRRIHAESLLLDSPAVAKSGDNLAEENSRDENRALVHQLSNESRLSITDSLSEFFDAQEVLLSPSSSENEISDDDSYVSDISDNLSLDNLSNDLDNERQTLGPVLDSGREAKSRRRTCLPAPCPSSSNISLWNILRNNIGKDLSKVAMPVELNEPLNTLQRLCEELEYSELLDKAAQIPSPLERMVYVAAFAISAYASSYYRAGSKPFNPVLGETYECIREDKGFQFFSEQVSHHPPISACHAESRNFVFWQDVRWKNKFWGKSMEIVPIGTTHVTLPVFGDHFEWNKVTSCIHNILSGQRWIEHYGEIVIKNLHDDSCYCKVNFIKAKYWSTNAHEIEGTVFDRSGKAVHRLFGKWHESIYCGGGSSSACVWRANPMPKGYEQYYSFTQFALELNEMDPSSKSLLPPTDTRFRPDQRFLEEGNLEEAEIQKQRIEQLQRERRRVLEENHVEHQPRFFRKSDDDSWVSNGTYLELRKDLGFSKLDHPVLW"}, "B3": {"name": "HNRNPR (protein, UniProt O43390 2-633, looked up)", "Heterogeneous nuclear …": "ANQVNGNAVQLKEEEEPMDTSSVTHTEHYKTLIEAGLPQKVAERLDEIFQTGLVAYVDLDERAIDALREFNEEGALSVLQQFKESDLSHVQNKSAFLCGVMKTYRQREKQGSKVQESTKGPDEAKIKALLERTGYTLDVTTGQRKYGGPPPDSVYSGVQPGIGTEVFVGKIPRDLYEDELVPLFEKAGPIWDLRLMMDPLSGQNRGYAFITFCGKEAAQEAVKLCDSYEIRPGKHLGVCISVANNRLFVGSIPKNKTKENILEEFSKVTEGLVDVILYHQPDDKKKNRGFCFLEYEDHKSAAQARRRLMSGKVKVWGNVVTVEWADPVEEPDPEVMAKVKVLFVRNLATTVTEEILEKSFSEFGKLERVKKLKDYAFVHFEDRGAAVKAMDEMNGKEIEGEEIEIVLAKPPDKKRKERQAARQASRSTAYEDYYYHPPPRMPPPIRGRGRGGGRGGYGYPPDYYGYEDYYDDYYGYDYHDYRGGYEDPYYGYDDGYAVRGRGGGRGGRGAPPPPRGRGAPPPRGRAGYSQRGAPLGPPRGSRGGRGGPAQQQRGRGSRGSRGNRGGNVGGKRKADGYNQPDSKRRQTNNQQNWGSQPIAQQPLQQGGDYSGNYGYNNDNQEFYQDTYGQQWK"}, "B4": {"name": "PWP2 (protein, UniProt Q15269 1-919, looked up)", "Periodic tryptophan protein 2 …": "MKFAYRFSNLLGTVYRRGNLNFTCDGNSVISPVGNRVTVFDLKNNKSDTLPLATRYNVKCVGLSPDGRLAIIVDEGGDALLVSLVCRSVLHHFHFKGSVHSVSFSPDGRKFVVTKGNIAQMYHAPGKKREFNAFVLDKTYFGPYDETTCIDWTDDSRCFVVGSKDMSTWVFGAERWDNLIYYALGGHKDAIVACFFESNSLDLYSLSQDGVLCMWQCDTPPEGLRLKPPAGWKADLLQREEEEEEEEDQEGDRETTIRGKATPAEEEKTGKVKYSRLAKYFFNKEGDFNNLTAAAFHKKSHLLVTGFASGIFHLHELPEFNLIHSLSISDQSIASVAINSSGDWIAFGCSGLGQLLVWEWQSESYVLKQQGHFNSMVALAYSPDGQYIVTGGDDGKVKVWNTLSGFCFVTFTEHSSGVTGVTFTATGYVVVTSSMDGTVRAFDLHRYRNFRTFTSPRPTQFSCVAVDASGEIVSAGAQDSFEIFVWSMQTGRLLDVLSGHEGPISGLCFNPMKSVLASASWDKTVRLWDMFDSWRTKETLALTSDALAVTFRPDGAELAVATLNSQITFWDPENAVQTGSIEGRHDLKTGRKELDKITAKHAAKGKAFTALCYSADGHSILAGGMSKFVCIYHVREQILMKRFEISCNLSLDAMEEFLNRRKMTEFGNLALIDQDAGQEDGVAIPLPGVRKGDMSSRHFKPEIRVTSLRFSPTGRCWAATTTEGLLIYSLDTRVLFDPFELDTSVTPGRVREALRQQDFTRAILMALRLNESKLVQEALEAVPRGEIEVVTSSLPELYVEKVLEFLASSFEVSRHLEFYLLWTHKLLMLHGQKLKSRAGTLLPVIQFLQKSIQRHLDDLSKLCSWNHYNMQYALAVSKQRGTKRSLDPLGSEEEAEASEDDSLHLLGGGGRDSEEEMLA"}, "B5": {"name": "ABCF3 (protein, UniProt Q9NUQ8 2-709, looked up)", "ATP-binding cassette …": "ATCAEILRSEFPEIDGQVFDYVTGVLHSGSADFESVDDLVEAVGELLQEVSGDSKDDAGIRAVCQRMYNTLRLAEPQSQGNSQVLLDAPIQLSKITENYDCGTKLPGLLKREQSSTVNAKKLEKAEARLKAKQEKRSEKDTLKTSNPLVLEEASASQAGSRKESRLESSGKNKSYDVRIENFDVSFGDRVLLAGADVNLAWGRRYGLVGRNGLGKTTLLKMLATRSLRVPAHISLLHVEQEVAGDDTPALQSVLESDSVREDLLRRERELTAQIAAGRAEGSEAAELAEIYAKLEEIEADKAPARASVILAGLGFTPKMQQQPTREFSGGWRMRLALARALFARPDLLLLDEPTNMLDVRAILWLENYLQTWPSTILVVSHDRNFLNAIATDIIHLHSQRLDGYRGDFETFIKSKQERLLNQQREYEAQQQYRQHIQVFIDRFRYNANRASQVQSKLKMLEKLPELKPVDKESEVVMKFPDGFEKFSPPILQLDEVDFYYDPKHVIFSRLSVSADLESRICVVGENGAGKSTMLKLLLGDLAPVRGIRHAHRNLKIGYFSQHHVEQLDLNVSAVELLARKFPGRPEEEYRHQLGRYGISGELAMRPLASLSGGQKSRVAFAQMTMPCPNFYILDEPTNHLDMETIEALGRALNNFRGGVILVSHDERFIRLVCRELWVCEGGGVTRVEGGFDQYRALLQEQFRREGFL"}},
  "data": [
    {"tested_on": "GFP-14-3-3β and its binding proteins", "assay": "GFP-14-3-3β co-IP with LC-MS/MS label-free quantification, untreated versus PP1c-treated", "design": "species or system human", "conditions": "GFP-14-3-3β co-IP LC-MS/MS; PP1 vs untreated; student's t-test; label-free quantification, 3 replicates each", "units": {"Difference (log2), PP1 vs untreated": "log2"}, "values": [
      {"molecule": "B1", "Difference (log2), PP1 vs untreated": -0.3133},
      {"molecule": "B2", "Difference (log2), PP1 vs untreated": -0.2879},
      {"molecule": "B3", "Difference (log2), PP1 vs untreated": -0.2799},
      {"molecule": "B4", "Difference (log2), PP1 vs untreated": -0.2929},
      {"molecule": "B5", "Difference (log2), PP1 vs untreated": -0.3214}
    ]},
    {"tested_on": "GFP-14-3-3β", "assay": "GFP-14-3-3β co-IP with LC-MS/MS, untreated GFP-14-3-3β versus GFP control (14-3-3 interactome)", "format": "binding, human", "conditions": "GFP-14-3-3β co-IP LC-MS/MS; untreated vs GFP; student's t-test; label-free quantification, 3 replicates each", "units": {"Difference (log2), untreated vs GFP": "log2"}, "values": [
      {"molecule": "B1", "Difference (log2), untreated vs GFP": 0.2278},
      {"molecule": "B2", "Difference (log2), untreated vs GFP": 1.582},
      {"molecule": "B3", "Difference (log2), untreated vs GFP": 0.8033},
      {"molecule": "B4", "Difference (log2), untreated vs GFP": 0.9621},
      {"molecule": "B5", "Difference (log2), untreated vs GFP": 1.23}
    ]}
  ]
}
